Results taken from paper PMC6698841.
Where two headings read alike, the source gives them in different places.

Tests used:
[1] = target: Variant 1051 (control; L234A/L235A on both heavy chains) (human); assay: SPR; ProteOn XPR36, 25 °C; 10 mM HEPES, 150 mM NaCl, 3.4 mM EDTA, 0.05% Tween 20, pH 7.4; trastuzumab variants captured (approx. 500 RU) on amine-coupled recombinant HER-2 (GLM chip); FcγRs injected as analyte, five concentrations in 3-fold dilution; Equilibrium Fit model, mean of two or three runs
[2] = target: Control Rituximab v1261 (anti-CD20 rituximab with heterodimerising CH3 mutations, no CH2 mutations) (human); assay: SPR; ProteOn XPR36, 25 °C; 10 mM HEPES, 150 mM NaCl, 3.4 mM EDTA, 0.05% Tween 20, pH 7.4; rituximab variants captured on amine-coupled goat anti-human Fc; FcγRs injected as analyte, five concentrations in 3-fold dilution; Equilibrium Fit model; ratios against homodimeric trastuzumab WT
[3] = target: Variant 791 (trastuzumab with heterodimerising CH3 mutations only, no CH2 mutations) (human); assay: SPR; ProteOn XPR36, 25 °C; 10 mM HEPES, 150 mM NaCl, 3.4 mM EDTA, 0.05% Tween 20, pH 7.4; trastuzumab variants captured (approx. 500 RU) on amine-coupled recombinant HER-2 (GLM chip); FcγRs injected as analyte, five concentrations in 3-fold dilution; Equilibrium Fit model, mean of two or three runs
[4] = target: Control Rituximab v1261 (anti-CD20 rituximab with heterodimerising CH3 mutations, no CH2 mutations) (human); assay: SPR; ProteOn XPR36, 25 °C; 10 mM HEPES, 150 mM NaCl, 3.4 mM EDTA, 0.05% Tween 20, pH 7.4; rituximab variants captured on amine-coupled goat anti-human Fc; FcγRs injected as analyte, five concentrations in 3-fold dilution; Equilibrium Fit model; ratios against homodimeric trastuzumab WT; remark: listed apart in the source
[5] = target: Variant 1051 (control; L234A/L235A on both heavy chains) (human); assay: SPR; ProteOn XPR36, 25 °C; 10 mM HEPES, 150 mM NaCl, 3.4 mM EDTA, 0.05% Tween 20, pH 7.4; trastuzumab variants captured (approx. 500 RU) on amine-coupled recombinant HER-2 (GLM chip); FcγRs injected as analyte, five concentrations in 3-fold dilution; Equilibrium Fit model, mean of two or three runs; remark: listed apart in the source
[6] = target: Variant 791 (trastuzumab with heterodimerising CH3 mutations only, no CH2 mutations) (human); assay: as above; remark: listed apart in the source

Chain of Control Rituximab v1261 (anti-CD20 rituximab with heterodimerising CH3 mutations, no CH2 mutations) (human) (heavy, as listed by the source, chain 1 of 2): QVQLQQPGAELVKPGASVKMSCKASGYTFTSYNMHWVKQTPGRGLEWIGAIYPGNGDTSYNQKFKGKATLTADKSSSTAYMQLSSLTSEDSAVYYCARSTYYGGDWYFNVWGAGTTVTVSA
Chain of Control Rituximab v1261 (anti-CD20 rituximab with heterodimerising CH3 mutations, no CH2 mutations) (human) (light, as listed by the source, chain 2 of 2): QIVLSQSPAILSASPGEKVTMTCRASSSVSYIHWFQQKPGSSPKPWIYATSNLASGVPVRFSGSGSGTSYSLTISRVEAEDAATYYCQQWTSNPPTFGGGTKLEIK

Row | Molecule | Kamut/KaWT (WT: homodimeric trastuzumab) [1] | Kamut/KaWT (WT: homodimeric trastuzumab) [2] | Kamut/KaWT (WT: homodimeric trastuzumab) [3] | Kamut/KaWT (WT: homodimeric trastuzumab) [4] | Kamut/KaWT (WT: homodimeric trastuzumab) [5] | Kamut/KaWT (WT: homodimeric trastuzumab) [6]
1 | FcγR 2aH (from UniProt P12318 34-317) (receptor) | 0.06 | 1.9 | 1.7 | – | – | –
2 | FcγR 3aF (from UniProt P08637 17-254) (receptor) | 0.29 | 1.4 | – | – | – | –
3 | FcγR 2aR, P12318 34-317 (receptor, modifications not checked) QAAAPPKAVLKLEPPWINVLQEDSVTLTCQGARSPESDSIQWFHNGNLIPTHTQPSYRFKANNNDSGEYTCQTGQTSLSDPVHLTVLSEWLVLQTPHLEFQEGETIMLRCHSWKDKPLVKVTFFQNGKSQKFSRLDPTFSIPQANHSHSGDYHCTGNIGYTLFSSKPVTITVQVPSMGSSSPMG | – | – | – | 1.5 | 0.06 | 1.7

Other lines, results leading:

Row | Kamut/KaWT (WT: homodimeric trastuzumab) [1] | Kamut/KaWT (WT: homodimeric trastuzumab) [2] | Kamut/KaWT (WT: homodimeric trastuzumab) [3] | Kamut/KaWT (WT: homodimeric trastuzumab) [4] | Kamut/KaWT (WT: homodimeric trastuzumab) [5] | Kamut/KaWT (WT: homodimeric trastuzumab) [6] | Molecule
4 | 0.01 | – | – | – | – | – | FcγR 1a (CD64) (from UniProt P12314 16-374) (receptor)
5 | 0.52 | 1.9 | – | – | – | – | FcγR 2b (from UniProt P31994 43-310) (receptor)
